B1: P4.33 protein (IGFBP-3 receptor, IGFBP-3R), untagged / endogenous (receptor)
chain: SFLLTHRTGLRSPDIPQDWVSFLRSFGQLTLCPRNGTVTGKWRGSHVVGLLTTLNFGDGPDRNKTRTFQATVLGSQMGLKGSSAGQLVLITARVTTERTAGTCLYFSAVPGILPSSQPPISCSEEGAGNATLSPRMGEECVSVWSHEGLVLTKLLTSEELALCGSRLLVLGSFLLLFCGLLCCVTAMCFHPRRESHWSRTRL
B2: IGFBP-3 fragment comprising amino acids 88-148 (peptide, UniProt P17936 115-175, looked up)
chain: VNASAVSRLRAYLLPAPPAPGNASESEEDRSAGSVESPSVSSTHRVSDPKFHPLHSKIIII
notes: range 88-148; also called IGFBP-3 fragment 88-148
B3: IGFBP-3 fragment comprising amino acids 98-264 (other, UniProt P17936 125-291, looked up)
chain: AYLLPAPPAPGNASESEEDRSAGSVESPSVSSTHRVSDPKFHPLHSKIIIIKKGHAKDSQRYKVDYESQSTDTQNFSSESKRETEYGPCRREMEDTLNHLKFLNVLSPRGVHIPNCDKKGFYKKKQCRPSKGRKRGFCWCVDKYGQPLPGYTTKGKEDVHCYSMQSK
notes: range 98-264; also called IGFBP-3 fragment 98-264

Legend:
[1] = molecular target: T1, Insulin-like Growth Factor Binding Protein-3 (IGFBP-3) (UniProt P17936 28-291, limits assumed, 125I label or OregonGreen label in some assays (sites not given)); assay: cell-surface binding with unlabelled IGFBP-3 as competitor, Hs578T cells transfected with un-tagged clone 4.33
T1 construct: mature; Also used for IGFBP-3 expressed by the cells themselves (Hs578T, PC-3, MCF-7:BP-3 lines) in the functional rows; also called unlabelled IGFBP-3
Method: Cell surface binding assay. Cells were seeded into 24-well plates and grown to 60-70% confluency, then transfected according to manufacturer instructions in serum-containing medium for 36 hours. Sf9 cells were seeded into 24-well plates and infected with virus harboring the 4-33^F cDNA for 48 hours. Cells were washed in cold PBS, then incubated for 3 hours at 12° C. in binding buffer (1× Hank's buffered salt solution, 1 mM CaCl₂, 1 mM MgCl₂, 0.5% BSA) containing [¹²⁵I]-IGFBP-3 (Diagnostic Systems Laboratories) at 50,000 cpm per well in triplicate, with or without unlabelled IGFBP-3 as indicated in the text below. The binding solution was then aspirated and the cells washed in cold binding buffer (without BSA), lysed in 0.25 N NaOH, and the radiolabelled IGFBP-3 present in each lysate was detected in a gamma counter.
Cells were then washed and exposed to [¹²⁵I]-labelled IGFBP-3 plus and minus increasing amounts of unlabelled IGFBP-3 as indicated for 3 hours at 12° C.

[2] = molecular target: B1; assay: cell-surface competition assay; competitor of full-length IGFBP-3

| binding result [1] | binding result [2] | Binder |
| --- | --- | --- |
| binds |  | B1 |
|  | binds | B2 |
|  | binds | B3 |

From US20040072285A1 (OREGON HEALTH AND SCIENCE UNIVERSITY, published 2004)
